Data reported in patent US20200239586A1 (LA TROBE UNIVERSITY, published 2020).

Columns and labels:
[1] = biological target: phage-displayed hFn14 mutant T33N (human, UniProt Q9NP84 28-77); assay: phage ELISA, antibody on plate
[2] = biological target: phage-displayed hFn14 mutant A34S (human, UniProt Q9NP84 28-77); assay: phage ELISA, antibody on plate
[3] = biological target: phage-displayed hFn14 mutant L77M (human, UniProt Q9NP84 28-76); assay: phage ELISA, antibody on plate
[4] = biological target: phage-displayed hFn14 mutant R56P (human, UniProt Q9NP84 28-77); assay: phage ELISA, antibody on plate
recombinant Fn14-Fc [5] = biological target: T1, recombinant Fn14-Fc (human, UniProt Q9NP84 28-77); assay: SPR (ProteOn XPR36), mAb captured on anti-mouse IgG, Fn14-Fc analyte, bivalent analyte fit
T1 construct: also called native Fn14; not shown: Fc region (recognised by anti-human Fc)
Protocol: (§1) The interaction of mouse anti-Fn14 IgG monoclonal antibodies CRCBT-06-001 and CRCBT-06-002 with recombinant Fn14-Fc was measured using the Bio-Rad ProteOn XPR36 essentially as described by Nahshol et al., (2008). Briefly, a GLM ProteOn sensor chip was activated by flowing a mixture of 0.2 M EDC and 0.05 M sulpho-NHS over the chip (150 μl at 30 μl/min for 5 minutes). Rabbit anti-mouse IgG whole molecule (Sigma M-7023) was then coupled to the chip in the vertical orientation by flowing 150 μl of a 50 μg/ml solution in 10 mM acetate buffer (pH 4.5) at 30 μl/min. The remaining coupling sites were then deactivated by flowing 150 μl of 1 M ethanolamine-HCl (pH 8.5) at 30 μl/min. Mouse anti-Fn14 IgG monoclonal antibodies were then bound to the coupled anti-mouse IgG antibody by flowing 150 μl of 100 μg/ml IgG at 25 μl/min over a single channel of the sensor chip in the horizontal direction. […] PBS Tween 20 (0.005%) alone was passed over the remaining channel. Binding sensorgrams were collected and analyzed with the ProteOn Manager 2.1 XPR36 software using the Langmuir or bivalent analyte kinetic models to fit the data and determine the affinity constant KD.
(§2) A Bio-Rad ProteOn XPR36 was used to determine the affinity of mouse monoclonal anti-Fn14 antibodies CRCBT-06-001 and CRCBT-06-002 to recombinant Fn14-Fc. It is clear that both antibodies tested display a high on-rate and a low off-rate. The ProteOn software was used to fit a curve to the sensorgram based on a mathematical model, enabling the kinetics of the interaction (ka, Kd and KD) to be calculated. A number of models can be used to fit the curves to the sensorgram, essentially the models used for each sensorgram were used as they provided the best fit, as evident by the low Chi² value obtained for the residuals.

recombinant Fn14-Fc [6] = biological target: T1, recombinant Fn14-Fc; assay: SPR (ProteOn XPR36), mAb captured on anti-mouse IgG, Fn14-Fc analyte, Langmuir fit
Protocol: as §1, §2

T1 sequence (Q9NP84 28-77): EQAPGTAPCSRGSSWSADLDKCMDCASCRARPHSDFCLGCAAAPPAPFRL
Chain of phage-displayed hFn14 mutant L77M (Q9NP84 28-77 L77M): as the sequence (Q9NP84 28-77) above, with L50M counted along it
Chain of phage-displayed hFn14 mutant R56P (Q9NP84 28-77 R56P): as the sequence (Q9NP84 28-77) above, with R29P counted along it
Chain of phage-displayed hFn14 mutant A34S (Q9NP84 28-77 A34S): as the sequence (Q9NP84 28-77) above, with A7S counted along it
Chain of phage-displayed hFn14 mutant T33N (Q9NP84 28-77 T33N): as the sequence (Q9NP84 28-77) above, with T6N counted along it

binding result [1]	binding result [2]	binding result [3]	binding result [4]	Kd (recombinant Fn14-Fc [5]) [nM]	koff (recombinant Fn14-Fc [5]) [s⁻¹]	kon (recombinant Fn14-Fc [5]) [M⁻¹ s⁻¹]	Kd (recombinant Fn14-Fc [6]) [nM]	koff (recombinant Fn14-Fc [6]) [s⁻¹]	kon (recombinant Fn14-Fc [6]) [M⁻¹ s⁻¹]	Binder
binds	binds	binds	binds	0.935	1.42e-05	15200				CRCBT-06-002 (antibody, IgG1, V domains shown) VH: EVKLQQSGGGLVQPGGSMKLSCVASGFTFSYYWMNWVRQSPEQGLEWIAEIRLQSNDYPTHYAESVKGRFTISRDDSKNSVYLQMNNLRPEDTGIYYCACRYADYFDHWGQGTTLTVSS VL: DTVLTQSPASLVVSLGQRATISCRASQSVSTSDYSYIHWYQQKPGQPPKFLIKYASNRDSGVPARFSGSGSGTDFTLNIHPVEEDDTAIYYCQHSWEIPPTFGAGTKLELQR
							0.768	1.81e-05	23600	CRCBT-06-001 (antibody, IgG2b, V domains shown) VH: QVQLQQSGGGLVQPGGSMKLSCIASGFTFSSYWMSWVRQSPEKGLEWVAEIRSKSDNYATHYAESVKGKFTISRDDSKSRFFLQMNNLRAEDTGIYYCSSTYADYFHYWGQGTDLTVSS VL: DIVMTQTPASLAVSLGQRATISCRASQSVSTSTYSYMHWYQQKPGQPPKLLIKYASSLESGVPARFSGSGSGTDFTLNIHPVEEDDTATYYCQHSWEIPYTFGGGTKLEIKR
